Test: yeast display, Sf9 membrane polyspecificity reagent, FACS + sequencing; frameworks hold sequencing errors
In short: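 Polyreactivity labels are assigned by the sorting gate from which each nanobody was recovered. The gates were low and high (top ~1%), set on anti-HA fluorescence for expression and streptavidin fluorescence for reagent binding. Before sorting, galactose-induced (36–48 hours) yeast display cells were stained for 1 hour at 4 °C with 10% biotinylated, detergent-solubilized Sf9 membrane reagent.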

| Sequence | polyreactivity (PSR sort gate) |
| --- | --- |
| QVQLVDSGGGLVQAGGSLRLSCAASGGTISQYAMGWYRQAPGKERELVARISRRGGSTSYADSVKGRFTISRDNAKNTVYLQMNSLKPEDTAVYYCNAVRFYGRWRWIMEYWGQGSQVTVSS | high polyreactivity |
| QDQLVESGGGLVQAGGSLRLSCAASGSSFLVYAMGWYRQATGKEREFVAAIRGGGSTNYADSVKGRFTISRDNAMNTVYLQMNSLKPEDTAVYYCAAYLLYTPSMDYWGQGTQVTVSS | low polyreactivity |
| QVQLVESGGGLVQAGGSLRLSCAASGFTFARYTMGWYRQAPGKERELVAAISSRGSSTYYADSVKGRFTISRDNAKNTVFLQMNSLKPEDTAVYYCAASPYDTQSLDYDYWGQGTQVTVSS | high polyreactivity |
| QDQHVESAGGVVQTGGSLRLSGAATGSIFGEYAMGWYRQPPGQEREFVADITRSDGSTYYADSVKGRFTISRDHAKNTVYFQMNSMKPEYTAVYYCAADSVLDRPVLYLGPWYLGDYWGQGTLVTVSS | low polyreactivity |
| QVQLVESGGGLVQAGGSLRLSCAASGRTFLRYAMGWYRQAPGKERELVAAITYGGRTNYADSVKGRFTISRDNAKNTVYLQMNSLKPEDTAVYYCAADRTYYYGMRVDYWGQGTQVTVSS | high polyreactivity |
| QVQLVESGGGLVQAGGSLRLSCAASGITFFDYAMGWYRQAPGKERELVAAIDLSDGRTYYADSVKGRFTISRDNAKNTVYLQMNSLKPEDTAVYYCARQHEDYGYYWYYWYDYDYWGQGTQVTVSS | low polyreactivity |
| QVQLVESGGGLVQAGGSLRLSCSASGRIFHRYTMGWYRQSPGKEREFVAAITTRAGSTYYADSVKGRFTISRDNAKYTVFLQMNSLKPEDTAVYYCNIRRHSMFGGTTTRYDFWGQGTQVTVSS | high polyreactivity |
| QVQLQESGGGLVQAGGSLCLSCAASGTIFFDGDMGWYRQAPGKEREFVAAINPGGSAYNADSVKGRLPLAAITHTVYLQMNSLKPEDTAVYYCSAKLFDVYGYYYWGQGTHVTVSS | low polyreactivity |
| QVQLVESGGGLVQAGGSLRLSCAASGRTLRTYAMGWYRQAPGKERELVAAITSSGGRTYYADSVKGRFTISRDNAKNTVYLQMNSLKPEDTAVYYCAAARYYYGGDYWGQGTQVTVSS | high polyreactivity |
| QDQLVESGGGLVQAGGSLRLSCAASGFIFSWYAMGWYRQPPGKERELVAGISIRGGRTYADSVKGRFTISRDNAKNTVYLQMNSLKPDDTAVYYCATRSYRPYHSLYDYWGQGTQVTVSS | high polyreactivity |
| QVQLVESGGGFVQAGGSLRLSCAASGLTFYGNVMGWYRQAPGKERELVAAITRRGTSTYYADSVKGRFTLSRDYAKNTVYLQMNRLKPEDTAFYYCAAGTAYSRFGYWGQGTQVTVSS | high polyreactivity |
| QVQLVESGGGLVQAGGSLRLSCAASGITFSNYSMGWYRQAPGKERELVAAISKRGGSTYYADSVKGRFTISRDNAKNTVYLQMNSLKPEDTAVYYCAAAGVRVYVRSGLDYWGQGTQVTVSS | high polyreactivity |
| QVQLVESGGGLVQAGGSLRLSCAASGRIFNAYAMGWYRQAPGKERELVAAITDDGGTNYADSVKGRFTISRDNAKNTVYLQMNSLKPEDTAVYYCAATYLIGYYYVWEYDYWGQGTQVTVSS | low polyreactivity |
| QVQLVESGGGLFKAGGSLRLSCAASGSTLVTYAKGWYRQAPGKERELVAAISWRGGSTYYADSVKGRYTISRDNAKNTVYLQMNSLKPEDTEVYYCNKMRAYKESETYYFWGQGTQVTVSS | low polyreactivity |
| QVQLVESGGGLVQAGGSLRLSCAASGRTFFYNAMGWYRQAPGKERELVATITWTGDSTYADSVKGRFTISRDNAKNTVYLQMNSLKPEDTAVYYCAAGKPVILTGDYDYWGQGTQVTVSS | low polyreactivity |
| QVQLVESGGGLVQAGGSLRLSCAASGGIFYLNAMGWYRQAPGKERELVAAISSGVSTYYADSVKGSFTISRDNAKNTVYLKMNSLKPEDTAVYYCNADYNYPAWVGSWWDYDYWGQGTQVTVTS | low polyreactivity |
| QVQLVESGGGLVQAGGSLRLSCAASGSIFRYNTMGWYRQAPGKERELVASIRIGGSTYYADSVKGRFTISRDNAKNTVYLQMNSLKPEDTAVYYCAVRPYRSAGGSVTRGAYYYWGQGTQVTVSS | high polyreactivity |
| QVQLVESGGGLVQAGGSLRLSCAASGFTFYYYAMGWYRQAPGKERELVAAISTRDGNTYYADSVKGRFTISRDNAKNTVYLQMNSLKPEDTAVYYCAADYFRYYPYDYSGQGTQVTVSS | low polyreactivity |
| QVQLVESGGGLVQAGGSLRLSCAASGSIFDRNAMGWYRQAPGKERELVAAITSGGSTYYADSVKGRFTISRDNAKNTVYLQMNSLKAEDTAVYYCNADADPPVPLYYWGQGTQVTVSS | low polyreactivity |
| QVQLVESGGGLVQAGGSRRLSCAASGFTFQDYAMGWYRQAPGKERELVAAISKSGGRTYYADSVKRRFTISRDNAKKTVYLEMNSLKPEETAVYYCAALPLYSQDYDYWGPGTQVTVSS | high polyreactivity |
| QVQLVESGGGLVQAGGSLRLSCAASGSTFHLYAMGWYRQAPGKETEFVPAIRGRGGNTYADSVKGRFTISRDNAKNTVYLQMNSLKPEDTAVYYCAAPLLRDLRSPYSYNYWGQGTQVTVSS | low polyreactivity |
| QVQLLESGGGLVQAGGSLRLSCAASGFNFGGYVMGWYRQAPGKESELVAAISSSGGITHYADSLKGRFTISRDNAKNTVSLQMNRLKPEDTAVYYCNALYRQRYYWGQGTQVTVSS | high polyreactivity |

| Sequence | polyreactivity (PSR sort gate) |
| --- | --- |
| QVQLVESGGGLVQAGGSLRLSCAASGITFWKYAMGWYRQAPGKERELVAAISGRGGSTYYADSVKGRFTISRDNAKNTVYLQMNSLKPEDTAVFYCAKFPGISGYNYWGQGTQVTVSS | high polyreactivity |
| QVHLVESGGGLVQAGGSLRLSCAASGSIFYKYVMGWYRQAPGKERELVAAISRGGGSTYYADSVKGRFTISRDNAKNTVYLQMNSLKPEDTAVYYCNAVGRPRYGHGFDHWGQGTQVTVSS | high polyreactivity |
| QVQLVESGGGLVQAGGSLRLSCAASGMTFWSYAMGWYRQAPGKDRELVAAITIGGTTYYADSVKGRFTISRDNAKNTVYLQMNSLKPEDTAVYYCAVDSTDQAPPTYDYWGQGTQVTVSS | low polyreactivity |
| QDQLVESGGGLVQAGGSLRLSCAASGFTFGNNARGWYRQAPGKERQFVATISRRGGSTYYADSVKGRFTISRDNAKYTVYLQMNSLKPEDTAVYSCAVDRAGIKLAAGYDYWGQGTQVTVSS | high polyreactivity |
| QVQLVESGGGLVKAGCSLRLSCADSGFIFSSYAMGWYRQAPGIERELVAAITRSGGITYYADSLKGRFTISRDNAKITVYLQMNSLKPEDTAVYYCAARWRYYRGYSRQRPYEFDYWGQGTQVTVSA | high polyreactivity |
| QVQLVETGGGLVQAGGSLRLSCAASGFIFRKYAMGWYRQAPGKERELVAAITASGGSTYYADSVKGRFTISRDNAKNTVYLQMNSLKPEDTAVYYCATDYHGAERWLKYVYWGQGTQVTVSS | high polyreactivity |
| QVQLVESGGGLVQAGGSLRLSCAASGSTLSFNAMGWYRQAPGKERELVAGITYSGGSTYYADSVKGRFTISRDNAKNTVYLQMNILKPEDTAVYYCNKASGVYYGHLDYWGQGTQVTVSS | low polyreactivity |
| QVQLVESGGGLVQAGGSLRLSCAASGSTFGRYAKGWYRQAPGKERQLVAAISSSGVTTYYADSVKGRFTISRDNAKNSVYLQINSLKPEDTAVYYCSQTYKYHRWITKYGYWGQGTQVTVSS | high polyreactivity |
| QVQLVESGGGLVQAGGSLRLSCAASGLSFQSYAMGWYRQAPGKERELVAAISRRSGSTYYADSVKGRFTISRDNAKNTVYLQMNSLKPEDTAVYYCTTRRGERGYWGQGTQVTVSS | high polyreactivity |
| QVQLVESGGGLVQAGGSLRLSCAASGSTFNSYAMGWYRQAPGKEWELVAAITSSVGSTYYADSVKGRFTISRDNAKNTVYLQMNSLKPEDTAVYYCAADYFSFWYFSGYDYWGQGTQVTVSS | low polyreactivity |
| QVQLVESAGGLVQAGGSLRLSCAASGSTFGANAMGWYRQAPGKEREYVAAISRSGVRTYYADSVKGRFTISRDNAKNTVYLQMNSLKPEDTAVYYCAADGYWWTYTRYDYWGQGTQVTVSS | low polyreactivity |
| QVQLVESGGGLVQAGGSLRLSCAASGSTIRSNAMGWYRQAPGKERELVAAISRTGGRTYYADSVKGRFTISRDNAKNTVYLQMNSLKPEDTAVYYCARPDKRLEYSENYYWGQGTQVTVSS | high polyreactivity |
| QDQLVESGAGLVQAGRSLRLSCAASGSIFRWYAMGWYRQAPGKERELVAAISTSGGNTYYADSVKGRFTISRDNAKNTVYLEMKSLIPEDTAVYYCNALWYRSLYYRYDYWGQVTQVTVSS | high polyreactivity |
| QVQLVESGGGLVQAGGSLRLSCAASGSTFSFNAMGWYRQAPGKERELVAAITYSGGDTYYADSVKGRFTISRDNAKNTVYLQMNSLKPEDTAVYYCAAKIPRPYAMDYWGQGTQVTVSS | low polyreactivity |
| QVQLVESGGGLVQAGGSLRLSCAASGSIFYSNVMGWYRLAPGKERELVAAITRGGGTNYADSVKGRFTISRDNAKNTVYLQMNSLKPEDTAVYYCNRDPQKYRWIPRYDYWGQGTQVTVSS | low polyreactivity |
| QVQLVESGGGLVQAGGSLRLSCAASGSIFWYNAMGWYIHAPWNERELVAAITSSSGRTRYADSEKGRFTISRDNAKNTVYLQMNSLKQEDTAVYYCAVAEGYSPAYLRDYWGQGTQVTVSS | high polyreactivity |
| QVQLVDSGGGLVQAGGSLRLSCAASGFIIGYNAMGWYRQAPGKEREFVAAISYNGGSTRYADSVKGRFTISRDNAKNTVYLQMNSLKPEDTAVYYCAAQKARVYRGAWTRYEYWGQGTQVTVSS | high polyreactivity |
| QVQLVESGGGLVQAGGSLRLSCAASGSTFWKYVMGWYRPAPGKERELVAAITSRGGSTYADSVKGRFTISRDNAKNTVYLLMNSLKPEDTAVYYCAATKFWYYGYDYWGQGTQVTVSS | low polyreactivity |
| QVQLVESGGGLDQAGGTLRLSCAASGSTFSDYAMGWYRQAPGKERQLVAAISVSDGSTYYADSVKGRFTISRDNAKNTVYFQMNSLKPEDTAVYYCAAEYPYFVYSYFRFDYWGQGTQVTVSS | low polyreactivity |
| QVQLVESGGGLVQAGGSLRLSCAASGITFDYYGMGWYRQAPGKERELFASITSGGSTNYADSVKGRFTISRDNAKNTVYLQMNSLKPEDTAVYYCNAEFWEVSPDPRDYDYWGQGTQVTVSS | low polyreactivity |
| QDQLVESGGGLVQAGGSLRLSCAASGRTFVSYVMGGYRQAPGKERELVAAIRRRGGRTYYSDSVKGRFTISRDNAKNTVYLQMNSLKPEDTAVYYCAAAQPGTNAYRVGSWGQGTQVSVSS | high polyreactivity |

Reference: the nanobody polyreactivity screen of Harvey et al. (2022)
